Test results as given in US20240279318A1 (NANJING LEGEND BIOTECH, published 2024).
Changes are numbered by the printed parent chain.

What was measured:
[1] = target: T1, AFP158/HLA-A*02:01 complex (human); assay: SPR, crude scFv captured, pMHC analyte;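 also: pMHC analyte injected at three concentrations, association phase of one hundred seconds, then running buffer for dissociation, rates fitted from both curves, KD derived from the rates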
T1 construct: flowed as analyte in SPR
Protocol: (§1) The experiment was carried out as follows. The crude scFv protein were captured onto the sensorchip. Different concentrations (320, 160, 40 nM) of AFP158/HLA-A*02:01 complex flowed over the sensorchip surface, and were allowed to bind the antibody fragment for 100 s followed by injection of the running buffer to allow dissociation of the complex. On-rate (kd) and off-rate (kd) were calculated based on association and dissociation curve, and were used to estimate the equilibrium dissociation constant (KD).
(§2) The crude scFv muteins were then subjected to SPR affinity measurement by the method mentioned above.

[2] = target: T1, AFP158/HLA-A*02:01 complex; assay: SPR, fold vs AS170036 VL1VH1;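 also: crude scFv muteins immobilised on a sensor chip, peptide–MHC complex passed over at several concentrations, binding then buffer-driven dissociation, KD estimated from on- and off-rates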
Protocol: as §1, §2

[3] = target: T2, AFP158/HLA-A*02:01 complex (human); assay: SPR, scFv captured, pMHC in flow;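 also: complex injected at several concentrations over crude scFv, association then running-buffer dissociation, KD estimated from kinetic on- and off-rate constants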
T2 construct: flowed over the chip in SPR; also called AFP158 pro
Protocol: as §1

[4] = target: T2, AFP158/HLA-A*02:01 complex; assay: SPR, KD ratio to AS170036 VL1VH1;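 also: crude scFv captured on a sensor chip, peptide–HLA complex passed over at several concentrations, association then buffer dissociation, KD derived from on- and off-rates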
Protocol: as §1

[5] = target: T2, AFP158/HLA-A*02:01 complex; assay: SPR, KD ratio to AS170036 VL1VH1; remark: listed apart in the source;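 also: crude scFv captured on a sensor chip, peptide–HLA complex passed over at several concentrations, association then buffer dissociation, KD derived from on- and off-rates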
[6] = target: T2, AFP158/HLA-A*02:01 complex; assay: SPR, scFv captured, pMHC in flow; remark: listed apart in the source;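 also: complex injected at several concentrations over crude scFv, association then running-buffer dissociation, KD estimated from kinetic on- and off-rate constants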
Protocol: as §1

B1: AS170036 VL1VH1-57H98F (scFv)
scFv: QSALTQPRSVSGSPGQSVTISCAGTSSDVGSENYVSWYQQHPGKAPKLMIYQVNKRASGVPDRFSGSKSGNTASLTISGLQAEDEADYYCASYRSSDFNIVFGGGTKLTVLGGGGSGGGGSGGGGSEVQLVESGGGLVQPGGSLRLSCAASGFTFSSYAMSWVRQAPGKGLEWVSTINSGTGHPYYADSVKGRFTISRDNSKNTLYLQMNSLRAEDTAVYYCAKNFFDGSWFLGPPAMDYWGQGTLVTVSSHHHHHH
notes: also called 07-AS170036 VL1VH1-57H98F
Kd [1]: 0.0074 µM | koff [1]: 0.0018 s⁻¹ | kon [1]: 240000 M⁻¹ s⁻¹ | Affinity increase [2]: 30.2 fold

B2: LD97A (scFv)
scFv: B1 scFv with D97A, F98H, H183S
notes: AS170036 VL1VH1 scFv mutein
Kd [3]: 0.47 µM | Affinity increase [4]: 0.5 fold | Affinity increase [5]: 0.5 fold | Kd [6]: 0.47 µM

B3: AS170036 VL1VH1-98I108S (scFv)
scFv: B1 scFv with F98I, H183S, G234S
notes: also called 36-AS170036 VL1VH1-98I108S
Kd [1]: 0.029 µM | koff [1]: 0.007 s⁻¹ | kon [1]: 240000 M⁻¹ s⁻¹ | Affinity increase [2]: 7.7 fold

B4: LD97G (scFv)
scFv: B1 scFv with D97G, F98H, H183S
notes: AS170036 VL1VH1 scFv mutein
Kd [3]: 0.31 µM | Affinity increase [4]: 0.8 fold | Affinity increase [5]: 0.8 fold | Kd [6]: 0.31 µM

B5: LE32D (scFv)
scFv: B1 scFv with E32D, F98H, H183S
notes: AS170036 VL1VH1 scFv mutein
Kd [3]: 0.19 µM | Affinity increase [4]: 1.3 fold | Affinity increase [5]: 1.3 fold | Kd [6]: 0.19 µM

B6: LD97R (scFv)
scFv: B1 scFv with D97R, F98H, H183S
notes: AS170036 VL1VH1 scFv mutein
Kd [3]: 0.52 µM | Affinity increase [4]: 0.5 fold | Affinity increase [5]: 0.5 fold | Kd [6]: 0.52 µM

B7: AS170036 VL1VH1-57M98Q (scFv)
scFv: B1 scFv with F98Q, H183M
notes: also called 15-AS170036 VL1VH1-57M98Q
Kd [1]: 0.028 µM | koff [1]: 0.0067 s⁻¹ | kon [1]: 240000 M⁻¹ s⁻¹ | Affinity increase [2]: 8 fold

B8: AS170036 VL1VH1-57M108A (scFv)
scFv: B1 scFv with F98H, H183M, G234A
notes: also called 28-AS170036 VL1VH1-57M108A
Kd [1]: 0.017 µM | koff [1]: 0.004 s⁻¹ | kon [1]: 240000 M⁻¹ s⁻¹ | Affinity increase [2]: 13.6 fold

B9: AS170036 VL1VH1-98F108S (scFv)
scFv: B1 scFv with H183S, G234S
notes: also called 33-AS170036 VL1VH1-98F108S
Kd [1]: 0.026 µM | koff [1]: 0.0086 s⁻¹ | kon [1]: 330000 M⁻¹ s⁻¹ | Affinity increase [2]: 8.6 fold

B10: AS170036 VL1VH1-57H98Q (scFv)
scFv: B1 scFv with F98Q
notes: also called 09-AS170036 VL1VH1-57H98Q
Kd [1]: 0.0091 µM | koff [1]: 0.0017 s⁻¹ | kon [1]: 190000 M⁻¹ s⁻¹ | Affinity increase [2]: 24.8 fold

B11: AS170036 VL1VH1-57K98Q (scFv)
scFv: B1 scFv with F98Q, H183K
notes: also called 12-AS170036 VL1VH1-57K98Q
Kd [1]: 0.016 µM | koff [1]: 0.0025 s⁻¹ | kon [1]: 160000 M⁻¹ s⁻¹ | Affinity increase [2]: 13.9 fold

B12: LD97F (scFv)
scFv: B1 scFv with D97F, F98H, H183S
notes: AS170036 VL1VH1 scFv mutein
Kd [3]: 0.45 µM | Affinity increase [4]: 0.5 fold | Affinity increase [5]: 0.5 fold | Kd [6]: 0.45 µM

B13: AS170036 VL1VH1-98I108A (scFv)
scFv: B1 scFv with F98I, H183S, G234A
notes: also called 34-AS170036 VL1VH1-98I108A; 34-AS170036 VL1VH1-98I08A
Kd [1]: 0.011 µM | koff [1]: 0.0031 s⁻¹ | kon [1]: 280000 M⁻¹ s⁻¹ | Affinity increase [2]: 20.1 fold

B14: LD97K (scFv)
scFv: B1 scFv with D97K, F98H, H183S
notes: AS170036 VL1VH1 scFv mutein
Kd [3]: 0.41 µM | Affinity increase [4]: 0.6 fold | Affinity increase [5]: 0.6 fold | Kd [6]: 0.41 µM

B15: LD97N (scFv)
scFv: B1 scFv with D97N, F98H, H183S
notes: AS170036 VL1VH1 scFv mutein
Kd [3]: 0.24 µM | Affinity increase [4]: 1 fold | Affinity increase [5]: 1 fold | Kd [6]: 0.24 µM

B16: AS170036 VL1VH1-57K98F (scFv)
scFv: B1 scFv with H183K
notes: also called 10-AS170036 VL1VH1-57K98F
Kd [1]: 0.019 µM | koff [1]: 0.004 s⁻¹ | kon [1]: 210000 M⁻¹ s⁻¹ | Affinity increase [2]: 11.8 fold

B17: LD97S (scFv)
scFv: B1 scFv with D97S, F98H, H183S
notes: AS170036 VL1VH1 scFv mutein
Kd [3]: 0.42 µM | Affinity increase [4]: 0.6 fold | Affinity increase [5]: 0.6 fold | Kd [6]: 0.42 µM

B18: AS170036 VL1VH1-98Q108D (scFv)
scFv: B1 scFv with F98Q, H183S, G234D
notes: also called 38-AS170036 VL1VH1-98Q108D
Kd [1]: 0.014 µM | koff [1]: 0.0045 s⁻¹ | kon [1]: 330000 M⁻¹ s⁻¹ | Affinity increase [2]: 16.3 fold

B19: LD97H (scFv)
scFv: B1 scFv with D97H, F98H, H183S
notes: AS170036 VL1VH1 scFv mutein
Kd [3]: 0.42 µM | Affinity increase [4]: 0.6 fold | Affinity increase [5]: 0.6 fold | Kd [6]: 0.42 µM

B20: LE32S (scFv)
scFv: B1 scFv with E32S, F98H, H183S
notes: AS170036 VL1VH1 scFv mutein
Kd [3]: 0.5 µM | Affinity increase [4]: 0.5 fold | Affinity increase [5]: 0.5 fold | Kd [6]: 0.5 µM

B21: AS170036 VL1VH1-57M98I (scFv)
scFv: B1 scFv with F98I, H183M
notes: also called 14-AS170036 VL1VH1-57M98I
Kd [1]: 0.04 µM | koff [1]: 0.013 s⁻¹ | kon [1]: 310000 M⁻¹ s⁻¹ | Affinity increase [2]: 5.6 fold

B22: AS170036 VL1VH1-57K108D (scFv)
scFv: B1 scFv with F98H, H183K, G234D
notes: also called 26-AS170036 VL1VH1-57K108D
Kd [1]: 0.012 µM | koff [1]: 0.0022 s⁻¹ | kon [1]: 190000 M⁻¹ s⁻¹ | Affinity increase [2]: 18.9 fold

B23: LE32G (scFv)
scFv: B1 scFv with E32G, F98H, H183S
notes: AS170036 VL1VH1 scFv mutein
Kd [3]: 0.35 µM | Affinity increase [4]: 0.7 fold | Affinity increase [5]: 0.7 fold | Kd [6]: 0.35 µM

B24: AS170036 VL1VH1-57H108S (scFv)
scFv: B1 scFv with F98H, G234S
notes: also called 24-AS170036 VL1VH1-57H108S
Kd [1]: 0.016 µM | koff [1]: 0.0022 s⁻¹ | kon [1]: 140000 M⁻¹ s⁻¹ | Affinity increase [2]: 14.2 fold

B25: AS170036 VL1VH1-57M108D (scFv)
scFv: B1 scFv with F98H, H183M, G234D
notes: also called 29-AS170036 VL1VH1-57M108D
Kd [1]: 0.019 µM | koff [1]: 0.0055 s⁻¹ | kon [1]: 290000 M⁻¹ s⁻¹ | Affinity increase [2]: 11.8 fold

B26: LD97T (scFv)
scFv: B1 scFv with D97T, F98H, H183S
notes: AS170036 VL1VH1 scFv mutein
Kd [3]: 0.36 µM | Affinity increase [4]: 0.7 fold | Affinity increase [5]: 0.7 fold | Kd [6]: 0.36 µM

B27: AS170036 VL1VH1-98Q108A (scFv)
scFv: B1 scFv with F98Q, H183S, G234A
notes: also called 37-AS170036 VL1VH1-98Q108A
Kd [1]: 0.011 µM | koff [1]: 0.0028 s⁻¹ | kon [1]: 250000 M⁻¹ s⁻¹ | Affinity increase [2]: 20.5 fold

B28: AS170036 VL1VH1-98Q108S (scFv)
scFv: B1 scFv with F98Q, H183S, G234S
notes: also called 39-AS170036 VL1VH1-98Q108S
Kd [1]: 0.027 µM | koff [1]: 0.0057 s⁻¹ | kon [1]: 220000 M⁻¹ s⁻¹ | Affinity increase [2]: 8.5 fold

B29: AS170036 VL1VH1-57M98F (scFv)
scFv: B1 scFv with H183M
notes: also called 13-AS170036 VL1VH1-57M98F
Kd [1]: 0.024 µM | koff [1]: 0.0087 s⁻¹ | kon [1]: 360000 M⁻¹ s⁻¹ | Affinity increase [2]: 9.3 fold

B30: AS170036 VL1VH1-57K108A (scFv)
scFv: B1 scFv with F98H, H183K, G234A
notes: also called 25-AS170036 VL1VH1-57K108A
Kd [1]: 0.01 µM | koff [1]: 0.0018 s⁻¹ | kon [1]: 180000 M⁻¹ s⁻¹ | Affinity increase [2]: 22.5 fold

B31: AS170036 VL1VH1-57H108A (scFv)
scFv: B1 scFv with F98H, G234A
notes: also called 22-AS170036 VL1VH1-57H108A
Kd [1]: 0.0069 µM | koff [1]: 0.0014 s⁻¹ | kon [1]: 210000 M⁻¹ s⁻¹ | Affinity increase [2]: 32.5 fold

B32: AS170036 VL1VH1-57K108S (scFv)
scFv: B1 scFv with F98H, H183K, G234S
notes: also called 27-AS170036 VL1VH1-57K108S
Kd [1]: 0.022 µM | koff [1]: 0.0026 s⁻¹ | kon [1]: 120000 M⁻¹ s⁻¹ | Affinity increase [2]: 10.1 fold

B33: AS170036 VL1VH1-57K98I (scFv)
scFv: B1 scFv with F98I, H183K
notes: also called 11-AS170036 VL1VH1-57K98I
Kd [1]: 0.025 µM | koff [1]: 0.004 s⁻¹ | kon [1]: 160000 M⁻¹ s⁻¹ | Affinity increase [2]: 9.1 fold

B34: AS170036 VL1VH1-57M108S (scFv)
scFv: B1 scFv with F98H, H183M, G234S
notes: also called 30-AS170036 VL1VH1-57M108S
Kd [1]: 0.033 µM | koff [1]: 0.0067 s⁻¹ | kon [1]: 200000 M⁻¹ s⁻¹ | Affinity increase [2]: 6.8 fold

B35: AS170036 VL1VH1-98F108A (scFv)
scFv: B1 scFv with H183S, G234A
notes: also called 31-AS170036 VL1VH1-98F108A
Kd [1]: 0.012 µM | koff [1]: 0.0039 s⁻¹ | kon [1]: 330000 M⁻¹ s⁻¹ | Affinity increase [2]: 19.1 fold

B36: AS170036 VL1VH1-57H108D (scFv)
scFv: B1 scFv with F98H, G234D
notes: also called 23-AS170036 VL1VH1-57H108D
Kd [1]: 0.0096 µM | koff [1]: 0.002 s⁻¹ | kon [1]: 210000 M⁻¹ s⁻¹ | Affinity increase [2]: 23.5 fold

B37: AS170036 VL1VH1-98F108D (scFv)
scFv: B1 scFv with H183S, G234D
notes: also called 32-AS170036 VL1VH1-98F108D
Kd [1]: 0.013 µM | koff [1]: 0.0057 s⁻¹ | kon [1]: 450000 M⁻¹ s⁻¹ | Affinity increase [2]: 17.6 fold

B38: AS170036 VL1VH1-98I108D (scFv)
scFv: B1 scFv with F98I, H183S, G234D
notes: also called 35-AS170036 VL1VH1-98I108D
Kd [1]: 0.014 µM | koff [1]: 0.0053 s⁻¹ | kon [1]: 370000 M⁻¹ s⁻¹ | Affinity increase [2]: 15.8 fold

B39: AS170036 VL1VH1-57H98I (scFv)
scFv: B1 scFv with F98I
notes: also called 08-AS170036 VL1VH1-57H98I
Kd [1]: 0.018 µM | koff [1]: 0.0036 s⁻¹ | kon [1]: 200000 M⁻¹ s⁻¹ | Affinity increase [2]: 12.6 fold
